Results on six molecules are retold here after patent US9605283B2, “Microorganism modified for the production of 1,3-propanediol” (INSTITUT NATIONAL DES SCIENCES APPLIQUÉES, priority 2012, dated 2017).

Holding throughout (assay type): biochemical
Series [1] can be described thus: OHB decarboxylase activity (coupled to YqhD, NADPH). The note with it: for Effect of mutation on activity and/or specificity for OHB (in words): versus wild-type enzyme. The method, then: (§1) OHB decarboxylase activity was assayed by coupling the decarboxylase activity to the NADPH-dependent reduction of the released 3-hydroxypropanal by purified aldehyde reductase, YqhD, from E. coli. The decarboxylation of pyruvate was coupled to the NADH-dependent reduction of acetaldehyde catalysed by yeast alcohol dehydrogenase. Branched-chain alpha-ketoacid decarboxylase activity was measured on 4-methyl-2-oxovaleric acid by coupling to the NADH-dependent reduction of 3-methylbutanal catalysed by horse liver alcohol dehydrogenase. […] Reactions were started by adding 20 mM 2-oxo-4-hydroxybutyrate (OHB), 10 mM 4-methyl-2-oxovaleric acid (MOV), or 5 mM pyruvate.

Series [2] can be described thus: Branched-chain alpha-ketoacid decarboxylase activity (coupled to horse liver alcohol dehydrogenase). As to the method:
as §1

Series [3] in a line: Pyruvate decarboxylase activity (coupled to yeast alcohol dehydrogenase). The note with it: activity measured at 50 mM pyruvate (Pdc mutants); Table 10. As to the method:
OHB decarboxylase activity was assayed by coupling the decarboxylase activity to the NADPH-dependent reduction of the released 3-hydroxypropanal by purified aldehyde reductase, YqhD, from E. coli. The decarboxylation of pyruvate was coupled to the NADH-dependent reduction of acetaldehyde catalysed by yeast alcohol dehydrogenase. Branched-chain alpha-ketoacid decarboxylase activity was measured on 4-methyl-2-oxovaleric acid by coupling to the NADH-dependent reduction of 3-methylbutanal catalysed by horse liver alcohol dehydrogenase. […]

The nature of series [4]: DHB dehydrogenase activity of cytosolic enzymes (DHB-dependent reduction of NAD+).
Protocol: Activity of the cytosolic DHB dehydrogenases (Ec-Mdh, Bs-Mdh, Ll-LdhA) was assayed by following the DHB-dependent reduction of NAD^+.
The reaction mixture contained 60 mM Hepes (pH 8), 50 mM potassium chloride, 5 mM MgCl2, 10 mM NAD, (optionally, 5 mM fructose-1,6-bisphosphate (F16bP)) (all products from Sigma), and appropriate amounts of purified enzyme or cell extract. Reactions were started by adding 50 mM (L)-2,4-dihydroxybutyrate (Rhodia).
All enzymatic assays were carried out at 37° C. in 96-well flat bottomed microtiter plates in a final volume of 250 μL. The reactions were followed by the characteristic absorption of NADH at 340 nm (εNADH=6.22 mM^−1 cm^−1) or the absorbtion of DCIP at 655 nm (εDCIP=5.9 mM^−1 cm^−1) in a microplate reader (BioRad 680XR).
Series [5] can be described thus: Lactate dehydrogenase activity (natural substrate). The note with it: for Max. specific activity, Natural substrate: natural substrate (L)-lactate, Table 2.
A short description of series [6]: DHB dehydrogenase activity of membrane-associated enzyme (DHB-dependent reduction of DCIP). As to the method: Activity of the membrane-associated DHB dehydrogenase (Ec-LldD) was assayed by following the DHB-dependent reduction of 2,6-dichloroindophenol (DCIP). (L)-2,4-dihydroxybutyrate+DCIPox→2-oxo-4-hydroxybutyrate+DCIPred Reaction scheme 2:
Reactions were started by adding 20 mM (L)-2,4-dihydroxybutyrate (Rhodia).

Where [7] appears, read: activity measured at 20 mM OHB, Table 10.

B1: Ll-KdcA: branched-chain alpha-ketoacid decarboxylase from L. lactis, SEQ ID No. 130 (protein, listed as Lactococcus lactis)
chain: MYTVGDYLLDRLHELGIEEIFGVPGDYNLQFLDQIISREDMKWIGNANELNASYMADGYARTKKAAAFLTTFGVGELSAINGLAGSYAENLPVVEIVGSPTSKVQNDGKFVHHTLADGDFKHFMKMHEPVTAARTLLTAENATYEIDRVLSQLLKERKPVYINLPVDVAAAKAEKPALSLEKESSTTNTTEQVILSKIEESLKNAQKPVVIAGHEVISFGLEKTVTQFVSETKLPITTLNFGKSAVDESLPSFLGIYNGKLSEISLKNFVESADFILMLGVKLTDSSTGAFTHHLDENKMISLNIDEGIIFNKVVEDFDFRAVVSSLSELKGIEYEGQYIDKQYEEFIPSSAPLSQDRLWQAVESLTQSNETIVAEQGTSFFGASTIFLKSNSRFIGQPLWGSIGYTFPAALGSQIADKESRHLLFIGDGSLQLTVQELGLSIREKLNPICFIINNDGYTVEREIHGPTQSYNDIPMWNYSKLPETFGATEDRVVSKIVRTENEFVSVMKEAQADVNRMYWIELVLEKEDAPKLLKKMGKLFAEQNK
B1: in series [1] (when not saturated, activity estimated at 20 mM substrate, Table 8), the “Max. specific activity, OHB” value was 0.08 µmol/mg/min. Besides, in series [1] (wild-type enzymes), the “OHB decarboxylase activity (in words)” value is given as “significant OHB decarboxylase activity”. In addition, the “Max. specific activity, Natural substrate” value in series [2] (natural substrate 4-methyl-2-oxovaleric, Table 8) was determined as 4 µmol/mg/min.

B2: Ll-KdcA G402S: L. lactis KdcA mutant G402S, SEQ ID No. 196 (protein, listed as Lactococcus lactis)
chain: MYTVGDYLLDRLHELGIEEIFGVPGDYNLQFLDQIISREDMKWIGNANELNASYMADGYARTKKAAAFLTTFGVGELSAINGLAGSYAENLPVVEIVGSPTSKVQNDGKFVHHTLADGDFKHFMKMHEPVTAARTLLTAENATYEIDRVLSQLLKERKPVYINLPVDVAAAKAEKPALSLEKESSTTNTTEQVILSKIEESLKNAQKPVVIAGHEVISFGLEKTVTQFVSETKLPITTLNFGKSAVDESLPSFLGIYNGKLSEISLKNFVESADFILMLGVKLTDSSTGAFTHHLDENKMISLNIDEGIIFNKVVEDFDFRAVVSSLSELKGIEYEGQYIDKQYEEFIPSSAPLSQDRLWQAVESLTQSNETIVAEQGTSFFGASTIFLKSNSRFIGQPLWSSIGYTFPAALGSQIADKESRHLLFIGDGSLQLTVQELGLSIREKLNPICFIINNDGYTVEREIHGPTQSYNDIPMWNYSKLPETFGATEDRVVSKIVRTENEFVSVMKEAQADVNRMYWIELVLEKEDAPKLLKKMGKLFAEQNK
Take B2: the “Max. specific activity, OHB” value in series [1] (setting [7]) is 0.09 µmol/mg/min. The “Effect of mutation on activity and/or specificity for OHB (in words)” value (from here on “Effect of mutation”) in series [1] was “increased activity and/or specificity for OHB”. Also, the “Max. specific activity, Natural substrate” value in series [2] (activity measured at 10 mM MOV (KdcA mutants), Table 10) is 3.1 µmol/mg/min.

B3: Zm-Pdc W392L: Z. mobilis pyruvate decarboxylase mutant W392L, SEQ ID No. 192 (protein, listed as Zymomonas mobilis)
chain: MSYTVGTYLAERLVQIGLKHHFAVAGDYNLVLLDNLLLNKNMEQVYCCNELNCGFSAEGYARAKGAAAAVVTYSVGALSAFDAIGGAYAENLPVILISGAPNNNDHAAGHVLHHALGKTDYHYQLEMAKNITAAAEAIYTPEEAPAKIDHVIKTALREKKPVYLEIACNIASMPCAAPGPASALFNDEASDEASLNAAVEETLKFIANRDKVAVLVGSKLRAAGAEEAAVKFADALGGAVATMAAAKSFFPEENPHYIGTSWGEVSYPGVEKTMKEADAVIALAPVFNDYSTTGWTDIPDPKKLVLAEPRSVVVNGIRFPSVHLKDYLTRLAQKVSKKTGALDFFKSLNAGELKKAAPADPSAPLVNAEIARQVEALLTPNTTVIAETGDSLFNAQRMKLPNGARVEYEMQWGHIGWSVPAAFGYAVGAPERRNILMVGDGSFQLTAQEVAQMVRLKLPVIIFLINNYGYTIEVMIHDGPYNNIKNWDYAGLMEVFNGNGGYDSGAGKGLKAKTGGELAEAIKVALANTDGPTLIECFIGREDCTEELVKWGKRVAAANSRKPVNKLL
In the case of B3, the “Max. specific activity, OHB” value in series [1] (setting [7]) amounted to 0.04 µmol/mg/min. Further, the “Effect of mutation” value in series [1] is recorded as “increased activity and/or specificity for OHB”. Moreover, the “Max. specific activity, Natural substrate” value in series [3] turned out to be 0.09 µmol/mg/min.

B4: Zm-Pdc G413N: Z. mobilis pyruvate decarboxylase mutant G413N, SEQ ID No. 194 (protein, listed as Zymomonas mobilis)
chain: MSYTVGTYLAERLVQIGLKHHFAVAGDYNLVLLDNLLLNKNMEQVYCCNELNCGFSAEGYARAKGAAAAVVTYSVGALSAFDAIGGAYAENLPVILISGAPNNNDHAAGHVLHHALGKTDYHYQLEMAKNITAAAEAIYTPEEAPAKIDHVIKTALREKKPVYLEIACNIASMPCAAPGPASALFNDEASDEASLNAAVEETLKFIANRDKVAVLVGSKLRAAGAEEAAVKFADALGGAVATMAAAKSFFPEENPHYIGTSWGEVSYPGVEKTMKEADAVIALAPVFNDYSTTGWTDIPDPKKLVLAEPRSVVVNGIRFPSVHLKDYLTRLAQKVSKKTGALDFFKSLNAGELKKAAPADPSAPLVNAEIARQVEALLTPNTTVIAETGDSWFNAQRMKLPNGARVEYEMQWNHIGWSVPAAFGYAVGAPERRNILMVGDGSFQLTAQEVAQMVRLKLPVIIFLINNYGYTIEVMIHDGPYNNIKNWDYAGLMEVFNGNGGYDSGAGKGLKAKTGGELAEAIKVALANTDGPTLIECFIGREDCTEELVKWGKRVAAANSRKPVNKLL
For the molecule B4, the “Max. specific activity, OHB” value in series [1] (setting [7]) was determined as 0.04 µmol/mg/min. In series [1], the “Effect of mutation” value is given as “increased activity and/or specificity for OHB”. In series [3], the “Max. specific activity, Natural substrate” value came to 0.1 µmol/mg/min.

B5: Ll-LdhA: (L)-lactate dehydrogenase of Lactococcus lactis, cytosolic, SEQ ID No. 120 (protein, listed as Lactococcus lactis)
chain: MADKQRKKVILVGDGAVGSSYAFALVNQGIAQELGIVDLFKEKTQGDAEDLSHALAFTSPKKIYSADYSDASDADLVVLTSGAPQKPGETRLDLVEKNLRITKDVVTKIVASGFKGIFLVAANPVDILTYATWKFSGFPKNRVVGSGTSLDTARFRQALAEKVDVDARSIHAYIMGEHGDSEFAVWSHANVAGVKLEQWFQENDYLNEAEIVELFESVRDAAYSIIAKKGATFYGVAVALARITKAILDDEHAVLPVSVFQDGQYGVSDCYLGQPAVVGAEGVVNPIHIPLNDAEMQKMEASGAQLKAIIDEAFAKEEFASAVKN
With B5, the “DHB dehydrogenase activity (in words)” value in series [4] (cytosolic wild-type enzymes) is “have DHB dehydrogenase activity”. For the same molecule, in series [4] (when not saturated, activity estimated at 50 mM substrate, Table 2), the “Max. specific activity, DHB” value was 1 µmol/mg/min. In series [5], the “Max. specific activity, Natural substrate” value was determined as 8.8 µmol/mg/min.

B6: Ec-LldD: membrane associated (L)-lactate dehydrogenase of E. coli, SEQ ID No. 122 (protein, listed as Escherichia coli)
chain: MIISAASDYRAAAQRILPPFLFHYMDGGAYSEYTLRRNVEDLSEVALRQRILKNMSDLSLETTLFNEKLSMPVALAPVGLCGMYARRGEVQAAKAADAHGIPFTLSTVSVCPIEEVAPAIKRPMWFQLYVLRDRGFMRNALERAKAAGCSTLVFTVDMPTPGARYRDAHSGMSGPNAAMRRYLQAVTHPQWAWDVGLNGRPHDLGNISAYLGKPTGLEDYIGWLGNNFDPSISWKDLEWIRDFWDGPMVIKGILDPEDARDAVRFGADGIVVSNHGGRQLDGVLSSARALPAIADAVKGDIAILADSGIRNGLDVVRMIALGADTVLLGRAFLYALATAGQAGVANLLNLIEKEMKVAMTLTGAKSISEITQDSLVQGLGKELPAALAPMAKGNAA
For the molecule B6, the Specificity in series [6] ((Vmax/Km)DHB/(Vmax/Km)nat. substrate, natural substrate lactate) is on record as 0.006. For the same molecule, the “Max. specific activity, DHB” value came to 0.37 µmol/mg/min in series [6] (DCIP assay, Table 2) and 0.37 µmol/mg/min in series [6] (E. coli LldD, Table 6). Moreover, in series [6] (membrane-associated enzyme), the “DHB dehydrogenase activity (in words)” value is listed as “have DHB dehydrogenase activity”. Further, the “Max. specific activity, lactate” value in series [5] (E. coli LldD, Table 6) worked out at 6.22 µmol/mg/min. For the same molecule, the “Max. specific activity, Natural substrate” value in series [5] was 6.22 µmol/mg/min.
